# Assays:
# [1] = biological target: plasma vitronectin (human (endogenous in plasma; the donor is not stated, anti-human vitronectin antibodies were used))
# [2] = biological target: αVβ3 integrin (immobilized) (UniProt P06756); test: ELISA; solid-phase binding: αVβ3 or αIIbβ3 coated on microtiter wells (250 ng per well), blocked with BSA; recalcified plasma treated with PDI-CCCC, PDI-AAAA, ERp57-CCCC or BSA and 0.3 mM DTT for 10 min at 37 °C, stopped with 20 mM NEM, diluted 1:100, 1 h; bound vitronectin detected with rabbit anti-vitronectin and anti-rabbit IgG-HRP
# [3] = biological target: αIIbβ3 integrin (immobilized) (UniProt P08514); test: as above
# [4] = biological target: PDI–CACA (human) (UniProt P07237); test: pull-down; kinetic trapping: DTT-reduced FLAG-/SBP-tagged PDI or ERp57 variant (500 ug) added to 5 ml recalcified platelet-rich plasma with GPRP, collagen and thrombin, 3 min at 23°, stopped with hirudin and 20 mM NEM; streptavidin-agarose, washes with 500 mM NaCl and 1.5% Triton X-100, eluted with biotin; non-reducing and reducing 1D or 2D SDS-PAGE, Western blot for FLAG and vitronectin; the complex is a mixed disulfide
# UniProt P06756, sequence (P06756 31-1048, chain 1 of 2): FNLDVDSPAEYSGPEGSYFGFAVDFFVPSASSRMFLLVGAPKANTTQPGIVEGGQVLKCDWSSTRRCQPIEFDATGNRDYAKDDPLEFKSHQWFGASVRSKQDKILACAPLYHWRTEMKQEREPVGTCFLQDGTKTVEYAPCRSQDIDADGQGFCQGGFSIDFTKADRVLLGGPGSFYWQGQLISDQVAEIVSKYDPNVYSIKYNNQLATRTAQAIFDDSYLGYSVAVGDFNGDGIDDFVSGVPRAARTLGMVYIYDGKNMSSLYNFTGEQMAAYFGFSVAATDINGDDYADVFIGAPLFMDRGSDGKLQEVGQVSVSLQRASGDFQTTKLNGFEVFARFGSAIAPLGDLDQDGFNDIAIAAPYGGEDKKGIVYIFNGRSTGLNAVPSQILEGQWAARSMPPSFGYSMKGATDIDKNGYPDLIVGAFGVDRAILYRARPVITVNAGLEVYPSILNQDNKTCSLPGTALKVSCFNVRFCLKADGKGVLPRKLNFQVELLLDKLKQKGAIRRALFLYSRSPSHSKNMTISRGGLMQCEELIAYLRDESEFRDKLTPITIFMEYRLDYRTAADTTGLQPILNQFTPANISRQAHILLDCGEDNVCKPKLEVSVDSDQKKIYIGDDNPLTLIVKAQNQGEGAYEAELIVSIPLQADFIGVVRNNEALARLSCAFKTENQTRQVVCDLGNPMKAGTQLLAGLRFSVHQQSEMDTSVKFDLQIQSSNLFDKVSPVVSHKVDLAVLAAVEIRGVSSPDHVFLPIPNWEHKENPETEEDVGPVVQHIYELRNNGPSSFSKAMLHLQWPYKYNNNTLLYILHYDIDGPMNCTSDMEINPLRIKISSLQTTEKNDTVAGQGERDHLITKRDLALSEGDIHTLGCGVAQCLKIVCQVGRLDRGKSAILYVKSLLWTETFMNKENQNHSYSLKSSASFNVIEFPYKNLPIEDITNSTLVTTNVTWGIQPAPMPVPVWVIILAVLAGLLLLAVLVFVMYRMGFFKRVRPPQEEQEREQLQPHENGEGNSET
# UniProt P06756, sequence (P05106 27-718, chain 2 of 2, further chain): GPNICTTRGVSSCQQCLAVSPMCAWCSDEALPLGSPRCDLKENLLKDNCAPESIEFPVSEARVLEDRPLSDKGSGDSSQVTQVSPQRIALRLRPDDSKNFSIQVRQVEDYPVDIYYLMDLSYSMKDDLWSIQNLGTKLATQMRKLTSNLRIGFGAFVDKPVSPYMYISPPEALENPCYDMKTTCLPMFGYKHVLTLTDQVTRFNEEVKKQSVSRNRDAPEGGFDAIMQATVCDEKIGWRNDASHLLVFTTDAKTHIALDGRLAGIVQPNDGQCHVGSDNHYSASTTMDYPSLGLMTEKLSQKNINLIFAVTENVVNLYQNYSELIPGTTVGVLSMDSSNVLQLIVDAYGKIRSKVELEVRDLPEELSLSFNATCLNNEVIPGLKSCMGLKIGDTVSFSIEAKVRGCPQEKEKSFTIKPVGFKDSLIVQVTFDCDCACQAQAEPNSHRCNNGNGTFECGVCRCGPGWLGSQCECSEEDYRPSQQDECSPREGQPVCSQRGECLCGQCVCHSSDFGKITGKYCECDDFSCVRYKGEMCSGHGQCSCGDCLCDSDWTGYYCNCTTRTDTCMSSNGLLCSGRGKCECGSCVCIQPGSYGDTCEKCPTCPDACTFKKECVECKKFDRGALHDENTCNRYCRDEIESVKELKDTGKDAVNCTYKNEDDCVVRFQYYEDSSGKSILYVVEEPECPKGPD
substance,measurement,setting,value
PDI–CCCC (wild type protein disulfide isomerase) (from UniProt P07237 18-508) (enzyme),"PEG5000-maleimide incorporated into plasma vitronectin after reduction by the enzyme in NEM-pretreated platelet-poor plasma (0 to 5 min at 1 uM; 0.25 to 2.5 uM for 5 min), gel shift on Western blot (moles per mole of vitronectin)",[1],3.6
PDI-reduced plasma vitronectin (natural protein),fold increase in bound vitronectin at the highest PDI concentration (15 μM),[2],4 fold
same,fold increase in bound vitronectin at the highest PDI concentration,[3],> 3 fold
plasma vitronectin (natural protein),stoichiometry N,[4],1
